Reference: patent US20200297862A1 (Zymeworks, published 2020)

Experiments:
[1] = molecular target: T1, Recombinant human HER2 (human, UniProt P04626 23-652); test: SPR as in Example 12, one-armed antibody, pre-SEC, against v10013
T1 construct: extracellular domain

[2] = molecular target: T1, Recombinant human HER2; test: SPR as in Example 12, one-armed antibody, post-SEC, against v10013

Fold wrt WT (KD(WT)/KD(mut)) [1]: 8.1 fold
Fold wrt WT (KD(WT)/KD(mut)) [2]: 7 fold
B1: Variant 10014 (antibody, name in Kabat numbering, V domains shown)
VH: EVQLVESGGGLVQPGGSLRLSCAASGFTFADYTMDWVRQAPGKGLEWVADVNPNSGGSIYNQRFKGRFTLSVDRSKNTLYLQMNSLRAEDTAVYYCARNLGPSFYFDYWGQGTLVTVSS
VL: DIQMTQSPSSLSASVGDRVTITCKASQDVSIGVAWYQQKPGKAPKLLIYSASYRYTGVPSRFSGSGSGTDFTLTISSLQPEDFATYYCQQYYIYPATFGQGTKVEIK
notes: also called v10014; OAA variant
